Assay results: publication PMC3677378

Experiments:
[1] = target: E. coli ribosomal post-peptide-release complex (RC; 70S, tRNA^fMet and [Met, stop]-mRNA) (E. coli) (UniProt P0AG67); experiment: co-sedimentation; RC or naked 70S (ribosomes 0.5 µM) with RF1 (2 µM) and RF3 (6 µM), 1xHEPES-polymix buffer, 37°C 10 min, no extra added GDP; ultracentrifugation on 30% sucrose cushion, SDS-PAGE, band intensities compared with ribosomal protein S1
[2] = target: E. coli ribosomal post-peptide-release complex (RC; 70S, tRNA^fMet and [Met, stop]-mRNA) (E. coli) (UniProt P0AG67); experiment: co-sedimentation; as a1 but with extra GDP titrated in, up to 200 μM extra GDP; ultracentrifugation on sucrose cushion, SDS-PAGE

- stoichiometry N (RF1 per S1 (band intensity)) [1]: 1
- stoichiometry N (RF1 per S1 (band intensity)) [2]: 1
Substance: release factor 1 (RF1), wild type (from UniProt P0A7I0 1-360) (natural protein)
